In patent publication US20180017550:

Assays:
[1] = biological target: human MDM2 (ubiquitin-protein ligase E3 MDM2), cell-free expressed with C-terminal HSV epitope tag and polyhistidine tag, Q00987
[2] = biological target: Human casein kinase II (CK), cell-free expressed with C-terminal HSV epitope tag and polyhistidine tag
[3] = biological target: human p53 oncoprotein (cellular tumor antigen p53), cell-free expressed from pETBlue-2 with C-terminal HSV epitope tag and polyhistidine tag, P04637
[4] = biological target: human protein kinase A catalytic subunit alpha, cell-free expressed with C-terminal HSV epitope tag and polyhistidine tag, P17612

B1: human recombinant ZAP-70 tyrosine kinase (Invitrogen Corporation) (protein)
chain: MPDPAAHLPFFYGSISRAEAEEHLKLAGMADGLFLLRQCLRSLGGYVLSLVHDVRFHHFPIERQLNGTYAIAGGKAHCGPAELCEFYSRDPDGLPCNLRKPCNRPSGLEPQPGVFDCLRDAMVRDYVRQTWKLEGEALEQAIISQAPQVEKLIATTAHERMPWYHSSLTREEAERKLYSGAQTDGKFLLRPRKEQGTYALSLIYGKTVYHYLISQDKAGKYCIPEGTKFDTLWQLVEYLKLKADGLIYCLKEACPNSSASNASGAAAPTLPAHPSTLTHPQRRIDTLNSDGYTPEPARITSPDKPRPMPMDTSVYESPYSDPEELKDKKLFLKRDNLLIADIELGCGNFGSVRQGVYRMRKKQIDVAIKVLKQGTEKADTEEMMREAQIMHQLDNPYIVRLIGVCQAEALMLVMEMAGGGPLHKFLVGKREEIPVSNVAELLHQVSMGMKYLEEKNFVHRDLAARNVLLVNRHYAKISDFGLSKALGADDSYYTARSAGKWPLKWYAPECINFRKFSSRSDVWSYGVTMWEALSYGQKPYKKMKGPEVMAFIEQGKRMECPPECPPELYALMSDCWIYKWEDRPDFLTVEQRMRACYYSLASKVEGPPGSTQKAEAACA
[1]
  phosphorylation of photo-transferred protein on microarray, anti-phosphotyrosine (RC20) detection: Both kinases heavily phosphorylate the MDM protein
[2]
  phosphorylation of photo-transferred protein on microarray, anti-phosphotyrosine (RC20) detection: ZAP-70 does not phosphorylate CK
[3]
  phosphorylation of photo-transferred protein on microarray, anti-phosphotyrosine (RC20) detection: p53 is not phosphorylated by either kinase
[4]
  phosphorylation of photo-transferred protein on microarray, anti-phosphotyrosine (RC20) detection: phosphorylates PKA to a very slight, nearly undetectable degree
